Test results published in patent US10100120B2, “Antibody which specifically binds to human CRTH2” (KYOWA HAKKO KIRIN CO., LTD, priority 2015, dated 2018).
Residue numbers refer to the chain shown, from its start.

B1: LV0HV1: humanized Lym2 antibody, VL LV0 (SEQ ID NO: 33), VH HV1 (SEQ ID NO: 51) (antibody, V domains shown)
VH: EVQLVESGGGVVQPGRSLRLSCAASGFTFSNYYMAWVRQAPGKGLEWVATISYDGSSTYYRDSVKGRFTISRDNAKNSLYLQMNSLRAEDTATYYCARHRGYYYSGAGYFDYWGQGTMVTVSS
VL: DIVMTQTPLSLPVTPGESASISCRSSQSLEYSDGYTYLEWYLQKPGQSPQVLIYGVSNRFSGVPDRFSGSGSGTDFTLKISRVEAEDVGVYYCFQATHDPLTFGQGTKLEIK
B2: Lym2 antibody: rat anti-human CRTH2 monoclonal antibody from hybridoma Lym2, rat IgG2b; VH SEQ ID NO: 17, VL SEQ ID NO: 19 (antibody, listed as Rattus norvegicus, V domains shown)
VH: B1 VH with V11L, L18M, R19K, G42K, N77S, S78T, N84D, A88S, T117V
VL: DVVLTQTPVSLSVTLGDQASISCRSSQSLEYSDGYTYLEWYLQKPGQSPQVLIYGVSNRFSGVPDRFIGSGSGTDFTLKISRVEPEDLGVYYCFQATHDPLTFGSGTKLEIK

Key:
Th2 cells = experiment: Cytotoxic activity against Th2 cells: cytokine production of PBMC after antibody treatment; assay type: cell-based, human; details: antibody 10 μg/mL 20 hours, then anti-CD3/anti-CD28 stimulation 3 days
Protocol: The mononuclear cell layer prepared in the same manner as in Example 13 was washed twice with RPMI-1640 (Wako Pure Chemical Industries) to which 1/10 volume FBS (GIBCO Inc.), 200 mM-L-Glutamine Stock Solution (NACALAI TESQUE, Inc.), 10 mM MEM Non-Essential Amino Acids Solution (GIBCO Inc.), 100 mM Sodium Pyruvate (GIBCO Inc.), 1 M HEPES Buffer Solution (GIBCO Inc.), and 1/100 volume Penicillin-Streptomycin, Liquid (GIBCO Inc.) were added [hereinafter, referred to as peripheral blood mononuclear cell (PBMC) culture medium], thereby preparing a 1×10^7 cells/mL cell suspension.
The prepared cell suspension was seeded in a 96-well plate at 100 μL/well, chLym2 antibody, the humanized anti-human CRTH2 antibody LV0HV1 or the isotype control antibody described in Example 8 was added thereto at a final concentration of 10 μg/mL to cause a reaction in a 5% CO2 incubator at 37° C. for 20 hours.
The cells after the reaction were washed 7 times with a PBMC culture medium to remove the test antibodies thoroughly. Thereafter, the cells were suspended with 100 μL of PBMC culture medium and seeded in a plate in which anti-CD3 antibody OKT3 (Abeam plc.) was immobilized at a concentration of 1 μg/mL. Next, an anti-CD28 antibody (BD Biosciences) prepared to have a concentration of 2 μg/mL was added thereto at 100 μL/well to cause a reaction in a 5% CO2 incubator at 37° C. for 3 days.
The supernatant after the reaction was recovered, and cytokine in the supernatant was quantified using Human IFN-γ Flex Set (BD Biosciences), Human IL-5 Flex Set (BD Biosciences), and Human IL-13 Flex Set (BD Biosciences) according to the attached instructions.

human eosinophils = experiment: Antagonist activity using shape change of human eosinophils as index (Example 19); assay type: cell-based; details: antibody 10 μg/mL or small molecule 10 μM, DKPGD2 0.1-1000 nM; FIG. 16
Protocol: Eosinophils were separated from human peripheral blood in the same manner as in Example 11. The isolated human eosinophils were suspended with Dulbecco's phosphate buffered saline (hereinafter, referred to as D-PBS (−)) (NACALAI TESQUE, Inc.) and performed a reaction in a 5% CO2 incubator at 37° C. for 1 hour and 30 minutes. Thereafter, the cells were seeded in a 96-well plate at 2×10^5 cells/well using 10% FBS-containing RPMI1640. Next, an isotype control antibody [CELL LAB Rat IgG2b Isotype Control (Beckman Coulter Inc.)] at a final concentration of 10 μg/mL or Lym2 antibody; or small molecular CRTH2 antagonist 00000459 (Cayman Chemical) at a final concentration of 10 μM as a positive control, was added thereto to cause a reaction in a 5% CO2 incubator at 37° C. for 30 minutes.
Next, DKPGD2 (Cayman Chemical) at each of final concentrations of 0.1, 1, 10, 100, and 1000 nM was added thereto to cause a reaction in a 5% CO2 incubator at 37° C. for 60 minutes. After the reaction, the cells were washed twice with ice-cold PBS, Fixation Buffer (BD Biosciences) was added at 200 μL/well, and the resultant was suspended well and allowed to stand at 4° C. for 30 minutes. After that, the cells were washed twice with SM, and shape change of eosinophils was analyzed by flow cytometry (BD Biosciences, FACS CantoII).
The shape change of eosinophils was analyzed based on an increase in Forward Scatter Light (FSC) plot which is an index of the cell size, the cell surface area, or the cell diameter in the analysis using flow cytometry and the percentage (%) of eosinophils detected in the gate of high FSC was calculated based on the FSC of DKPGD2-untreated eosinophils.

Row | Molecule | production of IL-5 (Th2 cytokine) (Th2 cells; FIG. 12(A)) | production of IL-13 (Th2 cytokine) (Th2 cells; FIG. 12(A)) | production of IFN-γ (Th1 cytokine) (Th2 cells; FIG. 12(B)) | inhibition of DKPGD2-dependent shape change of eosinophils (antagonist activity) (human eosinophils)
1 | B1 | reduced | reduced | not changed | 
2 | B2 |  |  |  | didn't inhibit
